We go through six molecules from patent US20260001928A1 (CORTERIA PHARMACEUTICALS, priority 2022, published 2026).

*1 amine or outer side, *2 acyl side, *3 side chain or, on linkers, in order; H or OH if unused. Where no end group is shown, it is not given here. Side-chain parts run from the residue outwards. [ ]: non-standard residue; d: D form. The star is where a group is joined. C20 diacid = O=C(O)CCCCCCCCCCCCCCCCCCC(=O)*; C16 diacid = O=C(O)CCCCCCCCCCCCCCC(=O)*; γGlu = O=C(O)[C@H](CCC(=O)[*:2])N[*:1]; NMeI = CC[C@H](C)[C@H](NC)C(=O)O; Pentanoyl = CCCCC(=O)*; AEEA = NCCOCCOCC(=O)O; Aib = CC(C)(N)C(=O)O A value given as a limit tells only on which side of the number the result lay.

In experiment [1] the target is Rat CRF2 a (corticotropin-releasing factor receptor 2), on the A7R5 rat aortic smooth muscle cell line (rat, UniProt P47866 20-411). Kind of experiment: cell-based or functional assay.
Experiment [2] addresses T1, CRF1R (corticotropin-releasing factor receptor 1), on the CRF1R-overexpression CHO-K1 cell line clone 2 (UniProt P34998 24-415, limits assumed).
T1 sequence (looked up): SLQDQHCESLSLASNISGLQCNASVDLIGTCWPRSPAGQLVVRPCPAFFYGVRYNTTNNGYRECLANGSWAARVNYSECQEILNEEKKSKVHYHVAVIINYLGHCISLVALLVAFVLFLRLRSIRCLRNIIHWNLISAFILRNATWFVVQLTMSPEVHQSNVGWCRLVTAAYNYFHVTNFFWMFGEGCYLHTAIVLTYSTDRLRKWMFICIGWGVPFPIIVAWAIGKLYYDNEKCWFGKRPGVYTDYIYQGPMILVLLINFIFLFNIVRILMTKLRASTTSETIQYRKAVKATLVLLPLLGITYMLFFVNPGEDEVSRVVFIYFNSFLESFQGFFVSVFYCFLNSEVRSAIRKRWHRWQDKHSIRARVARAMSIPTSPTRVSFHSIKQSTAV
Put plainly: cell-based or functional assay.

Sequence of Rat CRF2 a (corticotropin-releasing factor receptor 2), on the A7R5 rat aortic smooth muscle cell line (P47866 20-411): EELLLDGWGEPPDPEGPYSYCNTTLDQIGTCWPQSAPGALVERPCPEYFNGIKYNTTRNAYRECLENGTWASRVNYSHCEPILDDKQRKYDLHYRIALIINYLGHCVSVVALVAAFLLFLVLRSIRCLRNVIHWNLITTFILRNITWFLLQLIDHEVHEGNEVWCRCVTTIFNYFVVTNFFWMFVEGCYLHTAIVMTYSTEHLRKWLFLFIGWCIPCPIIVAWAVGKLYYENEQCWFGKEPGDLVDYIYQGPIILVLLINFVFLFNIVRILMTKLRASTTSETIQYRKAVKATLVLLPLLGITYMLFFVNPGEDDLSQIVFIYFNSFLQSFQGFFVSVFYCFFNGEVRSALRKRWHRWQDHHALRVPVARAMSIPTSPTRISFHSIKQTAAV

B1: peptide of SEQ ID NO: 168 (peptide)
peptide: Ac-IVLSLD[dV]PIKLK([γGlu-C16 diacid])KILLEQEKQKEQREQAETN[Aib]QILAQV-NH2
SMILES: CC[C@H](C)[C@H](NC(C)=O)C(=O)N[C@H](C(=O)N[C@@H](CC(C)C)C(=O)N[C@@H](CO)C(=O)N[C@@H](CC(C)C)C(=O)N[C@@H](CC(=O)O)C(=O)N[C@@H](C(=O)N1CCC[C@H]1C(=O)N[C@H](C(=O)N[C@@H](CCCCN)C(=O)N[C@@H](CC(C)C)C(=O)N[C@@H](CCCCNC(=O)CC[C@H](NC(=O)CCCCCCCCCCCCCCC(=O)O)C(=O)O)C(=O)N[C@@H](CCCCN)C(=O)N[C@H](C(=O)N[C@@H](CC(C)C)C(=O)N[C@@H](CC(C)C)C(=O)N[C@@H](CCC(=O)O)C(=O)N[C@@H](CCC(N)=O)C(=O)N[C@@H](CCC(=O)O)C(=O)N[C@@H](CCCCN)C(=O)N[C@@H](CCC(N)=O)C(=O)N[C@@H](CCCCN)C(=O)N[C@@H](CCC(=O)O)C(=O)N[C@@H](CCC(N)=O)C(=O)N[C@@H](CCCNC(=N)N)C(=O)N[C@@H](CCC(=O)O)C(=O)N[C@@H](CCC(N)=O)C(=O)N[C@@H](C)C(=O)N[C@@H](CCC(=O)O)C(=O)N[C@H](C(=O)N[C@@H](CC(N)=O)C(=O)NC(C)(C)C(=O)N[C@@H](CCC(N)=O)C(=O)N[C@H](C(=O)N[C@@H](CC(C)C)C(=O)N[C@@H](C)C(=O)N[C@@H](CCC(N)=O)C(=O)N[C@H](C(N)=O)C(C)C)[C@@H](C)CC)[C@@H](C)O)[C@@H](C)CC)[C@@H](C)CC)C(C)C)C(C)C
On to B1, for which, in experiment [1], the “EC50 [nM] 0% HSA (cAMP, A7R5 rat aortic smooth muscle cells)” value (from here on “EC50 [nM] 0% HSA”) worked out at 3.23 nM.

B2: peptide of SEQ ID NO: 231 (peptide)
peptide: Ac-IVLSLD[dV]PIKLK([AEEA-γGlu-C20 diacid])KILLEQEKQKEQREQAETN[Aib]QILAQV-NH2
SMILES: CC[C@H](C)[C@H](NC(C)=O)C(=O)N[C@H](C(=O)N[C@@H](CC(C)C)C(=O)N[C@@H](CO)C(=O)N[C@@H](CC(C)C)C(=O)N[C@@H](CC(=O)O)C(=O)N[C@@H](C(=O)N1CCC[C@H]1C(=O)N[C@H](C(=O)N[C@@H](CCCCN)C(=O)N[C@@H](CC(C)C)C(=O)N[C@@H](CCCCNC(=O)COCCOCCNC(=O)CC[C@H](NC(=O)CCCCCCCCCCCCCCCCCCC(=O)O)C(=O)O)C(=O)N[C@@H](CCCCN)C(=O)N[C@H](C(=O)N[C@@H](CC(C)C)C(=O)N[C@@H](CC(C)C)C(=O)N[C@@H](CCC(=O)O)C(=O)N[C@@H](CCC(N)=O)C(=O)N[C@@H](CCC(=O)O)C(=O)N[C@@H](CCCCN)C(=O)N[C@@H](CCC(N)=O)C(=O)N[C@@H](CCCCN)C(=O)N[C@@H](CCC(=O)O)C(=O)N[C@@H](CCC(N)=O)C(=O)N[C@@H](CCCNC(=N)N)C(=O)N[C@@H](CCC(=O)O)C(=O)N[C@@H](CCC(N)=O)C(=O)N[C@@H](C)C(=O)N[C@@H](CCC(=O)O)C(=O)N[C@H](C(=O)N[C@@H](CC(N)=O)C(=O)NC(C)(C)C(=O)N[C@@H](CCC(N)=O)C(=O)N[C@H](C(=O)N[C@@H](CC(C)C)C(=O)N[C@@H](C)C(=O)N[C@@H](CCC(N)=O)C(=O)N[C@H](C(N)=O)C(C)C)[C@@H](C)CC)[C@@H](C)O)[C@@H](C)CC)[C@@H](C)CC)C(C)C)C(C)C
As for B2, in experiment [2], the “EC50 [nM] (cAMP, CRF1R-overexpression CHO-K1 cells)” value is greater than 250 nM and the “Emax (% I) (cAMP, 100% = Sauvagine at 100 nM)” value stood at 10 % I. For the same molecule, in experiment [1], the “EC50 [nM] 0% HSA” value came out at 1.32 nM.

B3: peptide of SEQ ID NO: 213 (peptide)
peptide: Ac-IVLSLD[dV]PIKLK([γGlu-C20 diacid])KILLEQEKQKEQREQAETN[Aib]QILAQV-NH2
SMILES: CC[C@H](C)[C@H](NC(C)=O)C(=O)N[C@H](C(=O)N[C@@H](CC(C)C)C(=O)N[C@@H](CO)C(=O)N[C@@H](CC(C)C)C(=O)N[C@@H](CC(=O)O)C(=O)N[C@@H](C(=O)N1CCC[C@H]1C(=O)N[C@H](C(=O)N[C@@H](CCCCN)C(=O)N[C@@H](CC(C)C)C(=O)N[C@@H](CCCCNC(=O)CC[C@H](NC(=O)CCCCCCCCCCCCCCCCCCC(=O)O)C(=O)O)C(=O)N[C@@H](CCCCN)C(=O)N[C@H](C(=O)N[C@@H](CC(C)C)C(=O)N[C@@H](CC(C)C)C(=O)N[C@@H](CCC(=O)O)C(=O)N[C@@H](CCC(N)=O)C(=O)N[C@@H](CCC(=O)O)C(=O)N[C@@H](CCCCN)C(=O)N[C@@H](CCC(N)=O)C(=O)N[C@@H](CCCCN)C(=O)N[C@@H](CCC(=O)O)C(=O)N[C@@H](CCC(N)=O)C(=O)N[C@@H](CCCNC(=N)N)C(=O)N[C@@H](CCC(=O)O)C(=O)N[C@@H](CCC(N)=O)C(=O)N[C@@H](C)C(=O)N[C@@H](CCC(=O)O)C(=O)N[C@H](C(=O)N[C@@H](CC(N)=O)C(=O)NC(C)(C)C(=O)N[C@@H](CCC(N)=O)C(=O)N[C@H](C(=O)N[C@@H](CC(C)C)C(=O)N[C@@H](C)C(=O)N[C@@H](CCC(N)=O)C(=O)N[C@H](C(N)=O)C(C)C)[C@@H](C)CC)[C@@H](C)O)[C@@H](C)CC)[C@@H](C)CC)C(C)C)C(C)C
In the case of B3, the “EC50 [nM] 0% HSA” value in experiment [1] came to 0.45 nM.

B4: peptide of SEQ ID NO: 222 (peptide)
peptide: Pentanoyl-VLSLD[dV]PIKLK([γGlu-C20 diacid])KILLEQEKQKAQREQAETN[Aib]QILAQV-NH2
SMILES: CCCCC(=O)N[C@H](C(=O)N[C@@H](CC(C)C)C(=O)N[C@@H](CO)C(=O)N[C@@H](CC(C)C)C(=O)N[C@@H](CC(=O)O)C(=O)N[C@@H](C(=O)N1CCC[C@H]1C(=O)N[C@H](C(=O)N[C@@H](CCCCN)C(=O)N[C@@H](CC(C)C)C(=O)N[C@@H](CCCCNC(=O)CC[C@H](NC(=O)CCCCCCCCCCCCCCCCCCC(=O)O)C(=O)O)C(=O)N[C@@H](CCCCN)C(=O)N[C@H](C(=O)N[C@@H](CC(C)C)C(=O)N[C@@H](CC(C)C)C(=O)N[C@@H](CCC(=O)O)C(=O)N[C@@H](CCC(N)=O)C(=O)N[C@@H](CCC(=O)O)C(=O)N[C@@H](CCCCN)C(=O)N[C@@H](CCC(N)=O)C(=O)N[C@@H](CCCCN)C(=O)N[C@@H](C)C(=O)N[C@@H](CCC(N)=O)C(=O)N[C@@H](CCCNC(=N)N)C(=O)N[C@@H](CCC(=O)O)C(=O)N[C@@H](CCC(N)=O)C(=O)N[C@@H](C)C(=O)N[C@@H](CCC(=O)O)C(=O)N[C@H](C(=O)N[C@@H](CC(N)=O)C(=O)NC(C)(C)C(=O)N[C@@H](CCC(N)=O)C(=O)N[C@H](C(=O)N[C@@H](CC(C)C)C(=O)N[C@@H](C)C(=O)N[C@@H](CCC(N)=O)C(=O)N[C@H](C(N)=O)C(C)C)[C@@H](C)CC)[C@@H](C)O)[C@@H](C)CC)[C@@H](C)CC)C(C)C)C(C)C
With B4, in experiment [1], the “EC50 [nM] 0% HSA” value worked out at 0.18 nM.

B5: peptide of SEQ ID NO: 230 (peptide)
peptide: Ac-IVLSLD[dV]PIKLK([AEEA-γGlu-C20 diacid])KILLEQEKQKKQREQAETN[Aib]QILAQV-NH2
SMILES: CC[C@H](C)[C@H](NC(C)=O)C(=O)N[C@H](C(=O)N[C@@H](CC(C)C)C(=O)N[C@@H](CO)C(=O)N[C@@H](CC(C)C)C(=O)N[C@@H](CC(=O)O)C(=O)N[C@@H](C(=O)N1CCC[C@H]1C(=O)N[C@H](C(=O)N[C@@H](CCCCN)C(=O)N[C@@H](CC(C)C)C(=O)N[C@@H](CCCCNC(=O)COCCOCCNC(=O)CC[C@H](NC(=O)CCCCCCCCCCCCCCCCCCC(=O)O)C(=O)O)C(=O)N[C@@H](CCCCN)C(=O)N[C@H](C(=O)N[C@@H](CC(C)C)C(=O)N[C@@H](CC(C)C)C(=O)N[C@@H](CCC(=O)O)C(=O)N[C@@H](CCC(N)=O)C(=O)N[C@@H](CCC(=O)O)C(=O)N[C@@H](CCCCN)C(=O)N[C@@H](CCC(N)=O)C(=O)N[C@@H](CCCCN)C(=O)N[C@@H](CCCCN)C(=O)N[C@@H](CCC(N)=O)C(=O)N[C@@H](CCCNC(=N)N)C(=O)N[C@@H](CCC(=O)O)C(=O)N[C@@H](CCC(N)=O)C(=O)N[C@@H](C)C(=O)N[C@@H](CCC(=O)O)C(=O)N[C@H](C(=O)N[C@@H](CC(N)=O)C(=O)NC(C)(C)C(=O)N[C@@H](CCC(N)=O)C(=O)N[C@H](C(=O)N[C@@H](CC(C)C)C(=O)N[C@@H](C)C(=O)N[C@@H](CCC(N)=O)C(=O)N[C@H](C(N)=O)C(C)C)[C@@H](C)CC)[C@@H](C)O)[C@@H](C)CC)[C@@H](C)CC)C(C)C)C(C)C
As for B5, in experiment [2], the “EC50 [nM] (cAMP, CRF1R-overexpression CHO-K1 cells)” value is greater than 250 nM and the “Emax (% I) (cAMP, 100% = Sauvagine at 100 nM)” value is 30 % I. In experiment [1], the “EC50 [nM] 0% HSA” value stood at 0.11 nM.

B6: peptide of SEQ ID NO: 218 (peptide)
peptide: [NMeI]VLSLD[dV]PIKLK([γGlu-C20 diacid])KILLEQEKQKEQREQAETN[Aib]QILAQV-NH2
modifications: N-terminus assumed
SMILES: CC[C@H](C)[C@H](NC)C(=O)N[C@H](C(=O)N[C@@H](CC(C)C)C(=O)N[C@@H](CO)C(=O)N[C@@H](CC(C)C)C(=O)N[C@@H](CC(=O)O)C(=O)N[C@@H](C(=O)N1CCC[C@H]1C(=O)N[C@H](C(=O)N[C@@H](CCCCN)C(=O)N[C@@H](CC(C)C)C(=O)N[C@@H](CCCCNC(=O)CC[C@H](NC(=O)CCCCCCCCCCCCCCCCCCC(=O)O)C(=O)O)C(=O)N[C@@H](CCCCN)C(=O)N[C@H](C(=O)N[C@@H](CC(C)C)C(=O)N[C@@H](CC(C)C)C(=O)N[C@@H](CCC(=O)O)C(=O)N[C@@H](CCC(N)=O)C(=O)N[C@@H](CCC(=O)O)C(=O)N[C@@H](CCCCN)C(=O)N[C@@H](CCC(N)=O)C(=O)N[C@@H](CCCCN)C(=O)N[C@@H](CCC(=O)O)C(=O)N[C@@H](CCC(N)=O)C(=O)N[C@@H](CCCNC(=N)N)C(=O)N[C@@H](CCC(=O)O)C(=O)N[C@@H](CCC(N)=O)C(=O)N[C@@H](C)C(=O)N[C@@H](CCC(=O)O)C(=O)N[C@H](C(=O)N[C@@H](CC(N)=O)C(=O)NC(C)(C)C(=O)N[C@@H](CCC(N)=O)C(=O)N[C@H](C(=O)N[C@@H](CC(C)C)C(=O)N[C@@H](C)C(=O)N[C@@H](CCC(N)=O)C(=O)N[C@H](C(N)=O)C(C)C)[C@@H](C)CC)[C@@H](C)O)[C@@H](C)CC)[C@@H](C)CC)C(C)C)C(C)C
Consider B6, for which, in experiment [1], the “EC50 [nM] 0% HSA” value is 0.13 nM.
